Biological target: the molecule itself
Test: SEC-MALS

B1: stabilised full-length ectodomain of human hedgehog-interacting protein HIP (eHIPS) (domain or fragment, UniProt Q96QV1-1 56-670, looked up)
chain: MSQLELLSGGEMLCGGFYPRLSCCLRSDSPGLGRLENKIFSVTNNTECGKLLEEIKCALCSPHSQSLFHSPEREVLERDLVLPLLCKDYCKEFFYTCRGHIPGFLQTTADEFCFYYARKDGGLCFPDFPRKQVAGPASNYLDQMEEYDKVEEISAAHKHNCFCIQEVVSGLRQPVGALHSGDGSQRLFILEKEGYVKILTPEGEIFKEPYLDIHKLVQSGIKGGDERGLLSLAFHPNYKKNGKLYVSYTTNQERWAIGPHDHILRVVEYTVSRKNPHQVDLRTARVFLEVAELHRKHLGGQLLFGPDGFLYIILGDGMITLDDMEEMDGLSDFTGSVLRLDVDTDMCNVPYSIPRSNPHFNSTNQPPEVFAHGLHDPGRCAVDRHPTDININLTILCSDSNGKNRSSARILQIIKGKDYESEPSLLEFKPFSNGPLVGGFVYRGCQSERLYGSYVFGDRNGNFLTLQQSPVTKQWQEKPLCLGTSGSCRGYFSGHILGFGEDELGEVYILSSSKSMTQTHNGKLYKIVDPKRPLMPEECRATVQPAQTLTSECSRLCRNGYCTPTGKCCCSPGWEGDFCRTAKCEPACRHGGVCVRPNKCLCKKGYLGPQCEQVD
modifications: enzymatically biotinylated within an engineered C-terminal tag (form attached to the SPR surface); fully glycosylated for MALS
  stoichiometry N: 2
